Assay results: IntAct's records for PubMed 25946333

B1: Nuclear envelope integral membrane protein 1 (Mus musculus), Q6ZQE4 (parent)
chain: MAGGIKVSVWSAVGPGPRCWGAGGGGGATWLLLVVAGCVVCGSADVNVVMLQESQVDMNSSQQFCYKNVLIPKWHDIWTRIQVRVNSSKLVRVTQVDNEEKLKELEQFSIWNFFSSFLKEKLNDTYVNVGLYSTKTCLKVEMIEKDTTYSVTVTRRFDPKLFLVFLLGLTLFFCGDLLSRSQIFYYSTGMSVGIVASLLIVIFMISKFMPKRSPIYVILVGGWSFSLYLIQLVFKNLQEIWRSYWHYLLSYILTVGFMSFAVCYKYGPLENERSINLLTWTLQLLGLGLMYSSIQIPHVAFALIVIALCTKNLEYPIHWLCSTYRRMCKASGKPVPPRLLTEEEYRIQGEVETQKALQELREFCNSPECSAWKTISRIQSPKRFADFVEGSFHLTPNEVSVHEQEYGLGSIFTQDEELSSEEEGSEYPTFTQNNFLT

Variants of: B1
Conditions: with ran_mouse Ran

Row | effect of a mutation on the interaction | Variant
1 | disrupting interaction strength | S366A;S376A;S380A;S419A;S420A
2 | disrupting interaction strength | S366E;S376E;S380E;S419E;S420E
